B1: Barstar, P11540 (parent)
chain: MKKAVINGEQIRSISDLHQTLKKELALPEYYGENLDALWDCLTGWVEYPLVLEWRQFEQSKQLTENGAESVLQVFREAKAEGCDITIILS

Variants of: B1
Details: Bacillus amyloliquefaciens; pH 6.2; Thermal; DSC; Na-acetate 10 mM; NaCl 0.05 M; reversible: yes; structure 1BTA; whole UniProt chain shown

| Variant | Tm [°C] | unfolding enthalpy (calorimetric) [kcal/mol] | unfolding enthalpy (van 't Hoff) [kcal/mol] |
| --- | --- | --- | --- |
| C41A C83A | 73.6 | 73 | 71 |
| C83A | 71.9 | 49 | 68 |
| C41A | 74.1 | 51 | 73 |

From FireProtDB (doi:10.1016/s0014-5793(99)00158-1)
